B1: Mothers against decapentaplegic homolog 4 (Homo sapiens), Q13485 (parent)
chain: MDNMSITNTPTSNDACLSIVHSLMCHRQGGESETFAKRAIESLVKKLKEKKDELDSLITAITTNGAHPSKCVTIQRTLDGRLQVAGRKGFPHVIYARLWRWPDLHKNELKHVKYCQYAFDLKCDSVCVNPYHYERVVSPGIDLSGLTLQSNAPSSMMVKDEYVHDFEGQPSLSTEGHSIQTIQHPPSNRASTETYSTPALLAPSESNATSTANFPNIPVASTSQPASILGGSHSEGLLQIASGPQPGQQQNGFTGQPATYHHNSTTTWTGSRTAPYTPNLPHHQNGHLQHHPPMPPHPGHYWPVHNELAFQPPISNHPAPEYWCSIAYFEMDVQVGETFKVPSSCPIVTVDGYVDPSGGDRFCLGQLSNVHRTEAIERARLHIGKGVQLECKGEGDVWVRCLSDHAVFVQSYYLDREAGRAPGDAVHKIYPSAYIKVFDLRQCHRQMQQQAATAQAAAAAQAAAVAGNIPGPGSVGGIAPAISLSAAAGIGVDDLRRLCILRMSFVKGWGPDYPRQSIKETPCWIEIHLHRALQLLDEVLHTMPIADPQPLD

Variants of: B1
Conditions: with smad3_human SMAD3, P84022
Sequence of smad3_human SMAD3, P84022 (P84022 whole entry, looked up): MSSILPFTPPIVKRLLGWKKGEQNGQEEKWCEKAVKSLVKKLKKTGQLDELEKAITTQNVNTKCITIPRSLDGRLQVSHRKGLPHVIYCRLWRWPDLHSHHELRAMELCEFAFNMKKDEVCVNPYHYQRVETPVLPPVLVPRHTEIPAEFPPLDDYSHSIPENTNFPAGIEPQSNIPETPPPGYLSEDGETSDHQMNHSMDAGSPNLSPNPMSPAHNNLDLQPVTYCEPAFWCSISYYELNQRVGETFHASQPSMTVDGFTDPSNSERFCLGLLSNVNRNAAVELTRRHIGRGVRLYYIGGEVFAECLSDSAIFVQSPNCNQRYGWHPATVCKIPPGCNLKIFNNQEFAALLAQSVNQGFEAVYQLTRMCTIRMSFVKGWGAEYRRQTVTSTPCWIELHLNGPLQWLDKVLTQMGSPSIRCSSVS

Variant | effect of a mutation on the interaction
R361H | disrupting interaction strength

Variants of: B1
Conditions: with agap2_human AGAP2, Q99490

Variant | effect of a mutation on the interaction
R361H | with no effect

Variants of: B1
Conditions: with ajuba_human AJUBA

Variant | effect of a mutation on the interaction
R361H | with no effect

Variants of: B1
Conditions: with akt1_human AKT1, P31749

Variant | effect of a mutation on the interaction
R361H | with no effect

Variants of: B1
Conditions: with akts1_human AKT1S1, Q96B36

Variant | effect of a mutation on the interaction
R361H | with no effect

Variants of: B1
Conditions: with akt3_human AKT3, Q9Y243

Variant | effect of a mutation on the interaction
R361H | with no effect

Variants of: B1
Conditions: with alk_human ALK

Variant | effect of a mutation on the interaction
R361H | with no effect

Variants of: B1
Conditions: with aph1a_human APH1A

Variant | effect of a mutation on the interaction
R361H | with no effect

Variants of: B1
Conditions: with arnt_human ARNT

Variant | effect of a mutation on the interaction
R361H | with no effect

Variants of: B1
Conditions: with arc1a_human ARPC1A

Variant | effect of a mutation on the interaction
R361H | with no effect

Variants of: B1
Conditions: with asxl1_human ASXL1, Q8IXJ9

Variant | effect of a mutation on the interaction
R361H | with no effect

Variants of: B1
Conditions: with bakor_human ATG14, Q6ZNE5
Sequence of bakor_human ATG14, Q6ZNE5 (Q6ZNE5 whole entry): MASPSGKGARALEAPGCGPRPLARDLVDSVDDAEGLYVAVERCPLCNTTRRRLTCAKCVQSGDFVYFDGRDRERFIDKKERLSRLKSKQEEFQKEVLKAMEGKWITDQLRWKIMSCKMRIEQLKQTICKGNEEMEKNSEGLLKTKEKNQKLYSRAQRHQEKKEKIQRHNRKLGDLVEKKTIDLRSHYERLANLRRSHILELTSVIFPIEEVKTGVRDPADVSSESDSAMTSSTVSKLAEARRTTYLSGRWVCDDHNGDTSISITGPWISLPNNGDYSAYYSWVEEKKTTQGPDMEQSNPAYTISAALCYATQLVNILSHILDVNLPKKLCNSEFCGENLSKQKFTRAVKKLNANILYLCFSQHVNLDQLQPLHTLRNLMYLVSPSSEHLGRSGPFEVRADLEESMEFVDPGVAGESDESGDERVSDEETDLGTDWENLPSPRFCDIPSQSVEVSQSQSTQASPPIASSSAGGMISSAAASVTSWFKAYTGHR

Variant | effect of a mutation on the interaction
R361H | with no effect

Variants of: B1
Conditions: with atpb_human ATP5F1B

Variant | effect of a mutation on the interaction
R361H | with no effect

Variants of: B1
Conditions: with aurkb_human AURKB

Variant | effect of a mutation on the interaction
R361H | with no effect

Variants of: B1
Conditions: with ufo_human AXL

Variant | effect of a mutation on the interaction
R361H | with no effect

Variants of: B1
Conditions: with za2g_human AZGP1, P25311

Variant | effect of a mutation on the interaction
R361H | with no effect

Variants of: B1
Conditions: with b2mg_human B2M

Variant | effect of a mutation on the interaction
R361H | with no effect

Variants of: B1
Conditions: with bap1_human BAP1, Q92560

Variant | effect of a mutation on the interaction
R361H | with no effect

Variants of: B1
Conditions: with becn1_human BECN1, Q14457

Variant | effect of a mutation on the interaction
R361H | with no effect

Variants of: B1
Conditions: with birc2_human BIRC2, Q13490

Variant | effect of a mutation on the interaction
R361H | with no effect

Variants of: B1
Conditions: with braf_human BRAF

Variant | effect of a mutation on the interaction
R361H | with no effect

Variants of: B1
Conditions: with baba2_human BABAM2, Q9NXR7
Sequence of baba2_human BABAM2, Q9NXR7 (Q9NXR7 whole entry): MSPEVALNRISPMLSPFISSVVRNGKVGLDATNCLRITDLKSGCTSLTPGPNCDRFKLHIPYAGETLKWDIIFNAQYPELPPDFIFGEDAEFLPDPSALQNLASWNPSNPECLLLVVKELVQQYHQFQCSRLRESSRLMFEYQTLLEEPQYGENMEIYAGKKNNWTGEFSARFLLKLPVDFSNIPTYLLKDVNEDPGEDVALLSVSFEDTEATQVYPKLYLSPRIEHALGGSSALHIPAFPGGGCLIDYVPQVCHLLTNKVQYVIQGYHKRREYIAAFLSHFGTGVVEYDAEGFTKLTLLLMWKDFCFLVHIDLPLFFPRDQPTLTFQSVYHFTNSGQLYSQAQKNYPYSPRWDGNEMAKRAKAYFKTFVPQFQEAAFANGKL

Variant | effect of a mutation on the interaction
R361H | with no effect

Variants of: B1
Conditions: with cbl_human CBL

Variant | effect of a mutation on the interaction
R361H | with no effect

Variants of: B1
Conditions: with cblb_human CBLB

Variant | effect of a mutation on the interaction
R361H | with no effect

Variants of: B1
Conditions: with ccnd2_human CCND2, P30279

Variant | effect of a mutation on the interaction
R361H | with no effect

Variants of: B1
Conditions: with ccnd3_human CCND3, P30281

Variant | effect of a mutation on the interaction
R361H | with no effect

Variants of: B1
Conditions: with cd44_human CD44, P16070
Sequence of cd44_human CD44, P16070 (P16070 whole entry): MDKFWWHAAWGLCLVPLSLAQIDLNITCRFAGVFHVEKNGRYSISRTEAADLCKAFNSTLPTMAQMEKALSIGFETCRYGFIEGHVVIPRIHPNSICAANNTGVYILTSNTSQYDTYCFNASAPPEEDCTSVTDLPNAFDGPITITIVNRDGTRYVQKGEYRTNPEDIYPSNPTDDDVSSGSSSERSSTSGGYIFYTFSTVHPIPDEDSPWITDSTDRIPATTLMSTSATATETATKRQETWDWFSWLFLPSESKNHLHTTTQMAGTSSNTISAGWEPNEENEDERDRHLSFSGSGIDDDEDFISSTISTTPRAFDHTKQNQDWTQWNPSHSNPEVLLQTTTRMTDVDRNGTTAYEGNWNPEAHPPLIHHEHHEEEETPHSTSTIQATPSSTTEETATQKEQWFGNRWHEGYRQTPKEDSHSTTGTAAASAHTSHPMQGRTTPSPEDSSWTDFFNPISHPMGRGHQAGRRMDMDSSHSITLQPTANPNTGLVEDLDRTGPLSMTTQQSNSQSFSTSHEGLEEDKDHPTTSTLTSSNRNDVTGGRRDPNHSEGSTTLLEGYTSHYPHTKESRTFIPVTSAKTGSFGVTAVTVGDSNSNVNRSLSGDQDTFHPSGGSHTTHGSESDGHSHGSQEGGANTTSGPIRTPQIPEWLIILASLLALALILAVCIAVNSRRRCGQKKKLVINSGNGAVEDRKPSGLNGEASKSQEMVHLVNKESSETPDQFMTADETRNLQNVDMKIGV

Variant | effect of a mutation on the interaction
R361H | with no effect

Variants of: B1
Conditions: with cd79b_human CD79B

Variant | effect of a mutation on the interaction
R361H | with no effect

Variants of: B1
Conditions: with cdn2b_human CDKN2B

Variant | effect of a mutation on the interaction
R361H | with no effect

Variants of: B1
Conditions: with cdn2c_human CDKN2C

Variant | effect of a mutation on the interaction
R361H | with no effect

Variants of: B1
Conditions: with cebpa_human CEBPA

Variant | effect of a mutation on the interaction
R361H | with no effect

Variants of: B1
Conditions: with chd1l_human CHD1L

Variant | effect of a mutation on the interaction
R361H | with no effect

Variants of: B1
Conditions: with ch3l1_human CHI3L1, P36222

Variant | effect of a mutation on the interaction
R361H | with no effect

Variants of: B1
Conditions: with ctna1_human CTNNA1, P35221

Variant | effect of a mutation on the interaction
R361H | with no effect

Variants of: B1
Conditions: with ctnb1_human CTNNB1, P35222

Variant | effect of a mutation on the interaction
R361H | with no effect

Variants of: B1
Conditions: with cul3_human CUL3, Q13618

Variant | effect of a mutation on the interaction
R361H | with no effect

Variants of: B1
Conditions: with cul4b_human CUL4B

Variant | effect of a mutation on the interaction
R361H | with no effect

Variants of: B1
Conditions: with dicer_human DICER1, Q9UPY3
Sequence of dicer_human DICER1, Q9UPY3 (Q9UPY3 whole entry): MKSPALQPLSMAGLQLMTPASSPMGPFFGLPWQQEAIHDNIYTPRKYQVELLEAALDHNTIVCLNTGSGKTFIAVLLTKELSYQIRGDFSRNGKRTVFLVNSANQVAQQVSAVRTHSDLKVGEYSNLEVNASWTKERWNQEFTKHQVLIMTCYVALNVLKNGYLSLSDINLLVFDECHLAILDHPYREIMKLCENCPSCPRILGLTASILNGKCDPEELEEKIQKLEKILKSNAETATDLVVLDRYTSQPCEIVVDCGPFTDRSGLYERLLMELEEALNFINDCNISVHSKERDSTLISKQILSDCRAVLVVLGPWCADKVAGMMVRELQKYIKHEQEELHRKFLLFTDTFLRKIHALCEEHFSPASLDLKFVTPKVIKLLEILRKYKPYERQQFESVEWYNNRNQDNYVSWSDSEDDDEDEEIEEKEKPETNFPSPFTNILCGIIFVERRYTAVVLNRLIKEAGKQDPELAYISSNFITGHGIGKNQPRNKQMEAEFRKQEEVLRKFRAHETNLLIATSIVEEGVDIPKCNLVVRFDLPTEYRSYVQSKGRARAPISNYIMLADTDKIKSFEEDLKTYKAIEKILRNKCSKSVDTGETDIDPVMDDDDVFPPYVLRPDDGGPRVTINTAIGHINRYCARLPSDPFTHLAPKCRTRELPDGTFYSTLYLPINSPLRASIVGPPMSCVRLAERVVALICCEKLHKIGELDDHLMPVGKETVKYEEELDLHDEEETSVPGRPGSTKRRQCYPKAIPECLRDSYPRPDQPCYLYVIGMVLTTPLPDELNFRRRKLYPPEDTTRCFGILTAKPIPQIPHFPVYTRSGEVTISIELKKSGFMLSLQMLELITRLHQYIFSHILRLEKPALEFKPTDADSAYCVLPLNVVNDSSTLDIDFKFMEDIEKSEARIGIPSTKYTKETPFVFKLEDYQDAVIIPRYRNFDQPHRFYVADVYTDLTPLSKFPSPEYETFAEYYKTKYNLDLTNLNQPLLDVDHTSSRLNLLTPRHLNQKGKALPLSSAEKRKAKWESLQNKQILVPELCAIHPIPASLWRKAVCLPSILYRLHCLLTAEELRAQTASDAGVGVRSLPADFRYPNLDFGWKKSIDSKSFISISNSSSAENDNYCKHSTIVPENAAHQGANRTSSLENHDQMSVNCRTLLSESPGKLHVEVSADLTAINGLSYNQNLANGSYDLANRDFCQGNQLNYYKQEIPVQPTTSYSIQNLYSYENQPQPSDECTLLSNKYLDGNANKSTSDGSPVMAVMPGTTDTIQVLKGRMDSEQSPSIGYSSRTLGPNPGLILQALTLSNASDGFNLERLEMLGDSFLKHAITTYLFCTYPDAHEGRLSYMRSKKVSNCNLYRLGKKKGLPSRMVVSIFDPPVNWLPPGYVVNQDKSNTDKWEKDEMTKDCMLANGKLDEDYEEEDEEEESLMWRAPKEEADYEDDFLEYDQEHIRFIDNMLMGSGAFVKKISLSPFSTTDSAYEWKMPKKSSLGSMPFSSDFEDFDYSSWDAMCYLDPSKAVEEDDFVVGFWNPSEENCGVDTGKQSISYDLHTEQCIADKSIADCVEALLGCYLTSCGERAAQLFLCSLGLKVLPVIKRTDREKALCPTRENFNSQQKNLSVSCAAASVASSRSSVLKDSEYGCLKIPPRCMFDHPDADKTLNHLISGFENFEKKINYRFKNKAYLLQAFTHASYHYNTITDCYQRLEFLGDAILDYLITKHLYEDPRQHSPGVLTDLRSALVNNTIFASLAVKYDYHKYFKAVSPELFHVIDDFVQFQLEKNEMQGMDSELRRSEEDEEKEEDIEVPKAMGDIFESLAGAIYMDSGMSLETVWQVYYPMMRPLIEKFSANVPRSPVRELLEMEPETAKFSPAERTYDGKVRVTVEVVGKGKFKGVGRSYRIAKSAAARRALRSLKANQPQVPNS

Variant | effect of a mutation on the interaction
R361H | with no effect

Variants of: B1
Conditions: with dll3_human DLL3, Q9NYJ7

Variant | effect of a mutation on the interaction
R361H | with no effect

Variants of: B1
Conditions: with duox2_human DUOX2, Q9NRD8

Variant | effect of a mutation on the interaction
R361H | with no effect

Variants of: B1
Conditions: with e2f3_human E2F3, O00716

Variant | effect of a mutation on the interaction
R361H | with no effect

Variants of: B1
Conditions: with e2f4_human E2F4, Q16254
Sequence of e2f4_human E2F4, Q16254 (Q16254 whole entry): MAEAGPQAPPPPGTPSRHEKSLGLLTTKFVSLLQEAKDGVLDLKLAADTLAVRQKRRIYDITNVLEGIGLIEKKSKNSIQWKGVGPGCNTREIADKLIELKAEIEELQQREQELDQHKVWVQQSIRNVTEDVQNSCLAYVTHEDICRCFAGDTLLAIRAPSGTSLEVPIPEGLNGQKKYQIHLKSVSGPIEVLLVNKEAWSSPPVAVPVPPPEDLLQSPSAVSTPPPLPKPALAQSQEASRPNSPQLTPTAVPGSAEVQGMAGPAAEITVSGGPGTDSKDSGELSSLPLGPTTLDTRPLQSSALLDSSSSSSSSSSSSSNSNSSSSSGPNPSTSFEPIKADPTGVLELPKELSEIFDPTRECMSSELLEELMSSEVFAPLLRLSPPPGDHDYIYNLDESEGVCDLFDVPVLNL

Variant | effect of a mutation on the interaction
R361H | with no effect

Variants of: B1
Conditions: with e2f5_human E2F5, Q15329

Variant | effect of a mutation on the interaction
R361H | with no effect

Variants of: B1
Conditions: with if4e_human EIF4E

Variant | effect of a mutation on the interaction
R361H | with no effect

Variants of: B1
Conditions: with epha2_human EPHA2, P29317

Variant | effect of a mutation on the interaction
R361H | with no effect

Variants of: B1
Conditions: with epha7_human EPHA7, Q15375

Variant | effect of a mutation on the interaction
R361H | with no effect

Variants of: B1
Conditions: with ephb1_human EPHB1, P54762

Variant | effect of a mutation on the interaction
R361H | with no effect

Variants of: B1
Conditions: with erbb3_human ERBB3, P21860

Variant | effect of a mutation on the interaction
R361H | with no effect

Variants of: B1
Conditions: with erbb4_human ERBB4, Q15303

Variant | effect of a mutation on the interaction
R361H | with no effect

Variants of: B1
Conditions: with esr1_human ESR1, P03372

Variant | effect of a mutation on the interaction
R361H | with no effect

Variants of: B1
Conditions: with etv1_human ETV1, P50549

Variant | effect of a mutation on the interaction
R361H | with no effect

Variants of: B1
Conditions: with fadd_human FADD

Variant | effect of a mutation on the interaction
R361H | with no effect

Variants of: B1
Conditions: with facd2_human FANCD2, Q9BXW9

Variant | effect of a mutation on the interaction
R361H | with no effect

Variants of: B1
Conditions: with fgf19_human FGF19, O95750
Sequence of fgf19_human FGF19, O95750 (O95750 whole entry): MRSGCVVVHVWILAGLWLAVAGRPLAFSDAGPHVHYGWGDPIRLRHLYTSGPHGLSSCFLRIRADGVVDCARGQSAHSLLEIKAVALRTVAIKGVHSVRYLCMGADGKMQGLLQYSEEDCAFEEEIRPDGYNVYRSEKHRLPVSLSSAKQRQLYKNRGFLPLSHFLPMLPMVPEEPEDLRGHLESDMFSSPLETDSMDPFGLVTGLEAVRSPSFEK

Variant | effect of a mutation on the interaction
R361H | with no effect

Variants of: B1
Conditions: with fgfr3_human FGFR3, P22607

Variant | effect of a mutation on the interaction
R361H | with no effect

Variants of: B1
Conditions: with fgfr4_human FGFR4, P22455

Variant | effect of a mutation on the interaction
R361H | with no effect

Variants of: B1
Conditions: with foxo1_human FOXO1, Q12778

Variant | effect of a mutation on the interaction
R361H | with no effect

Variants of: B1
Conditions: with gbra6_human GABRA6, Q16445

Variant | effect of a mutation on the interaction
R361H | with no effect

Variants of: B1
Conditions: with gata2_human GATA2, P23769

Variant | effect of a mutation on the interaction
R361H | with no effect

Variants of: B1
Conditions: with gata3_human GATA3, P23771
Sequence of gata3_human GATA3, P23771 (P23771 whole entry): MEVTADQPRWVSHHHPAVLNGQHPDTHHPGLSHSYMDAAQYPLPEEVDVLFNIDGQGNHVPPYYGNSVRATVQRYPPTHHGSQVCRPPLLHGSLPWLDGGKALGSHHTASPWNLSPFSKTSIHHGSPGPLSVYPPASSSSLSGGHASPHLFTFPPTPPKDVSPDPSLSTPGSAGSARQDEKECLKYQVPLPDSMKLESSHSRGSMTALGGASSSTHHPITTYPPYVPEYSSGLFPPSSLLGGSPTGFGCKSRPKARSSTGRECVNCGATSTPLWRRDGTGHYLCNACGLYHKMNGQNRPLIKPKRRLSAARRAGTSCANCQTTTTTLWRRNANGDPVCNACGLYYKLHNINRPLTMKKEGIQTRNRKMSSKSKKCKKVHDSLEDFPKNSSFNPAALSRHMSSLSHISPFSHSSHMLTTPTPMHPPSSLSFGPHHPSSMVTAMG

Variant | effect of a mutation on the interaction
R361H | with no effect

Variants of: B1
Conditions: with gna11_human GNA11, P29992

Variant | effect of a mutation on the interaction
R361H | with no effect

Variants of: B1
Conditions: with gnaq_human GNAQ

Variant | effect of a mutation on the interaction
R361H | with no effect

Variants of: B1
Conditions: with grm1_human GRM1, Q13255

Variant | effect of a mutation on the interaction
R361H | with no effect

Variants of: B1
Conditions: with grm3_human GRM3, Q14832

Variant | effect of a mutation on the interaction
R361H | with no effect

Variants of: B1
Conditions: with gsk3a_human GSK3A

Variant | effect of a mutation on the interaction
R361H | with no effect

Variants of: B1
Conditions: with hdac1_human HDAC1, Q13547

Variant | effect of a mutation on the interaction
R361H | with no effect

Variants of: B1
Conditions: with hdac3_human HDAC3, O15379

Variant | effect of a mutation on the interaction
R361H | with no effect

Variants of: B1
Conditions: with hgf_human HGF

Variant | effect of a mutation on the interaction
R361H | with no effect

Variants of: B1
Conditions: with h31_human H3C1, P68431

Variant | effect of a mutation on the interaction
R361H | with no effect

Variants of: B1
Conditions: with hlab_human HLA-B

Variant | effect of a mutation on the interaction
R361H | with no effect

Variants of: B1
Conditions: with hnf1a_human HNF1A

Variant | effect of a mutation on the interaction
R361H | with no effect

Variants of: B1
Conditions: with rash_human HRAS

Variant | effect of a mutation on the interaction
R361H | with no effect

Variants of: B1
Conditions: with hs90a_human HSP90AA1, P07900

Variant | effect of a mutation on the interaction
R361H | with no effect

Variants of: B1
Conditions: with hs90b_human HSP90AB1, P08238

Variant | effect of a mutation on the interaction
R361H | with no effect

Variants of: B1
Conditions: with il7ra_human IL7R

Variant | effect of a mutation on the interaction
R361H | with no effect

Variants of: B1
Conditions: with irf6_human IRF6, O14896

Variant | effect of a mutation on the interaction
R361H | with no effect

Variants of: B1
Conditions: with irs1_human IRS1, P35568

Variant | effect of a mutation on the interaction
R361H | with no effect

Variants of: B1
Conditions: with jak1_human JAK1, P23458

Variant | effect of a mutation on the interaction
R361H | with no effect

Variants of: B1
Conditions: with kdm5c_human KDM5C

Variant | effect of a mutation on the interaction
R361H | with no effect

Variants of: B1
Conditions: with vgfr2_human KDR

Variant | effect of a mutation on the interaction
R361H | with no effect

Variants of: B1
Conditions: with keap1_human KEAP1, Q14145

Variant | effect of a mutation on the interaction
R361H | with no effect

Variants of: B1
Conditions: with klf4_human KLF4, O43474

Variant | effect of a mutation on the interaction
R361H | with no effect

— IntAct's records for PubMed 35512704
